Assay results from article PMC4678826, “Different genome stability proteins underpin primed and naïve adaptation in E. coli CRISPR-Cas immunity”.

T1: Cas2 (Escherichia coli, UniProt P45956 1-94)
T1 sequence: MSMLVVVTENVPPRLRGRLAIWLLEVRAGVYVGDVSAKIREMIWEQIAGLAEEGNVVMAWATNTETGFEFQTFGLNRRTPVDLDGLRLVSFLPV

T2: Cas1 (Escherichia coli, UniProt Q46896 1-305)
T2 sequence: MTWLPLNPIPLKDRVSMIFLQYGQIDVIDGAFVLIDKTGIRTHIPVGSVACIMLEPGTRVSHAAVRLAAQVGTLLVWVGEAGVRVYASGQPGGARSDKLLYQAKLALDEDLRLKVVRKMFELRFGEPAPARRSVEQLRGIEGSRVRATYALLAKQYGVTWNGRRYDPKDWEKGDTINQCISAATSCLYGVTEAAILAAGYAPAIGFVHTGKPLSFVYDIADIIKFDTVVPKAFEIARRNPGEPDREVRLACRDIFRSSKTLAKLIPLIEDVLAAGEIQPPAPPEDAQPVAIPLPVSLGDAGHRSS

B1: fork-1 (mixed)
DNA 1: CAACGTCATAGACGATTACATTGCTACATGGAGCTGTCTAGAGGATCCGA
DNA 2: TCGGATCCTCTAGACAGCTCCATGATCACTGGCACTGGTAGAATTCGGC
DNA 3: GCCGAATTCTACCAGTGCCAGTGAT
B2: fork-1a (mixed)
DNA 1: B1 DNA 1
DNA 2: B1 DNA 2
DNA 3: GCCGAATTCTACCAGTGCCAGTGAT
DNA 4: AATGTAATCGTCTATGACGTTG

Legend:
Cas2 = target: T1, Cas2; assay: EMSA; 5 mM EDTA; EMSA: 7 mM Tris-HCl pH 8.5, 9% glycerol, 50 mM NaCl, 100 ug/ml BSA, 5 mM EDTA, 10 min ambient temperature, 6 nM DNA, 5% acrylamide TBE gel at room temperature; conditions: protein: recombinant; tags: N-terminal His6; chain copies: 2; label: 5'-32P; fork; 25 nt leading arm duplex, 26 nt ssDNA flap
Cas1 [1] = target: T2, Cas1; assay: EMSA; 5 mM EDTA; Cas1 0.1-25 nM, DNA 6 nM; EMSA: 7 mM Tris-HCl pH 8.5, 9% glycerol, 50 mM NaCl, 100 ug/ml BSA, 5 mM EDTA, 10 min ambient temperature, 6 nM DNA, 5% acrylamide TBE gel at room temperature; conditions: protein: recombinant; tags: N-terminal His6; chain copies: 2; label: 5'-32P; fork; 25 nt leading arm duplex, 26 nt ssDNA flap
Cas1 [2] = target: T2, Cas1; assay: EMSA; 5 mM EDTA; Cas1 25 nM, DNA 6 nM; similar to fork-1; EMSA: 7 mM Tris-HCl pH 8.5, 9% glycerol, 50 mM NaCl, 100 ug/ml BSA, 5 mM EDTA, 10 min ambient temperature, 6 nM DNA, 5% acrylamide TBE gel at room temperature; conditions: protein: recombinant; tags: N-terminal His6; chain copies: 2; label: 5'-32P; fork with 4 nt ssDNA gap at branch point

| Binder | binding result (Cas2) | binding result (Cas1 [1]) | binding result (Cas1 [2]) |
| --- | --- | --- | --- |
| B1 | no binding | binds | – |
| B2 | – | – | binds |
